Data taken from US20090286723A1.

How the values were obtained:
[1] = target: neuropeptide Y2 receptor (SK-N-BE cell membranes) (UniProt P49146); test: [125I]-human PYY displacement, SK-N-BE membranes
calcitonin receptor [2] = test: calcitonin receptor binding assay
calcitonin receptor [3] = test: cell-based or functional assay

Chain of neuropeptide Y2 receptor (SK-N-BE cell membranes) (P49146 whole entry): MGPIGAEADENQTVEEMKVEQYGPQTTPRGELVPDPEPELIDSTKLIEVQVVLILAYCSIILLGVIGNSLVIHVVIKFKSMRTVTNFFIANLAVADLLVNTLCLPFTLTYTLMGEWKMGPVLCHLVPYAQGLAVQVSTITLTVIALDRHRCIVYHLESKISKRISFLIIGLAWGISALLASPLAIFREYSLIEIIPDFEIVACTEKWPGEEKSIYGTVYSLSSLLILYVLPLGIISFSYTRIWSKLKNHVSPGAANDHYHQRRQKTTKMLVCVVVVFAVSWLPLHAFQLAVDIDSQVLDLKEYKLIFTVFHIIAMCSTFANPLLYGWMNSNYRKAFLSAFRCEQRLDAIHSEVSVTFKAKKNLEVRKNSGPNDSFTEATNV

“[#Cys-Gly-Gly-PYY (3-36), amide] [Asp(#)-Pro-Pro-Pro-Pro-Pro-Pro-PYY (3-36), amide] (peptide; modification not given)” gave a Receptor Binding [1] of 0.8.
“[Asp(#)-miniPEG-Gly-PYY (3-36), amide] [#Cys-Gly-Gly-PYY (3-36), amide] (peptide; modification not given)” gave a Receptor Binding [1] of 0.8.
“[#Cys-Gly-Gly-PYY (3-36), amide] [Asp(#)-miniPEG3-Gly-PYY (3-36), amide] (peptide; modification not given)” gave a Receptor Binding [1] of 0.8.
“[#NH-Cys-(bAla)-PYY-(3-36), amide] [#Suc-(bAla)-PYY-(3-36), amide] (peptide)” gave a Receptor Binding (calcitonin receptor [2]) of 643 and a Receptor Activation: CT cyclase (calcitonin receptor [3]) of 2270.
In the case of “[Ac-alpha-MSH-bAla-bAla-PYY-(3-36), amide] (peptide; modification not given)”, the Receptor Binding [1] is reported as 0.2.
